Laboratory results as given in paper PMC10523585 (Molecular cell, 2023).

Tests used:
Assay in all cases: cryo-EM structure
[1] = target: Rpt5 (ATPase subunit of the human 26S proteasome) (human, UniProt P17980 1-439)
[2] = target: Rpt1 (ATPase subunit of the human 26S proteasome) (human, UniProt P35998 1-433)
[3] = target: Rpn1 (non-ATPase, ubiquitin-binding subunit of the human 26S proteasome) (human, UniProt Q13200 1-908)
[4] = target: T1, α7 (CP subunit of the human 26S proteasome) (human, UniProt P25788 2-255)
T1 sequence: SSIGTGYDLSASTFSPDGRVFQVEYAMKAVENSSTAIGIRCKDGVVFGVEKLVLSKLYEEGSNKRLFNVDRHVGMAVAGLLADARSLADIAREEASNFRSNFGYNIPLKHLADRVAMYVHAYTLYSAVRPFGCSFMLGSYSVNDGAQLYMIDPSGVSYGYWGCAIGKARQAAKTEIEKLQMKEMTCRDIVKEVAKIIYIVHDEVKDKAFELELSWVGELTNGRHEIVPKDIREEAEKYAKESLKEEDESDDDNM

Measured: binding result

Chain of Rpn1 (non-ATPase, ubiquitin-binding subunit of the human 26S proteasome) (Q13200 whole entry): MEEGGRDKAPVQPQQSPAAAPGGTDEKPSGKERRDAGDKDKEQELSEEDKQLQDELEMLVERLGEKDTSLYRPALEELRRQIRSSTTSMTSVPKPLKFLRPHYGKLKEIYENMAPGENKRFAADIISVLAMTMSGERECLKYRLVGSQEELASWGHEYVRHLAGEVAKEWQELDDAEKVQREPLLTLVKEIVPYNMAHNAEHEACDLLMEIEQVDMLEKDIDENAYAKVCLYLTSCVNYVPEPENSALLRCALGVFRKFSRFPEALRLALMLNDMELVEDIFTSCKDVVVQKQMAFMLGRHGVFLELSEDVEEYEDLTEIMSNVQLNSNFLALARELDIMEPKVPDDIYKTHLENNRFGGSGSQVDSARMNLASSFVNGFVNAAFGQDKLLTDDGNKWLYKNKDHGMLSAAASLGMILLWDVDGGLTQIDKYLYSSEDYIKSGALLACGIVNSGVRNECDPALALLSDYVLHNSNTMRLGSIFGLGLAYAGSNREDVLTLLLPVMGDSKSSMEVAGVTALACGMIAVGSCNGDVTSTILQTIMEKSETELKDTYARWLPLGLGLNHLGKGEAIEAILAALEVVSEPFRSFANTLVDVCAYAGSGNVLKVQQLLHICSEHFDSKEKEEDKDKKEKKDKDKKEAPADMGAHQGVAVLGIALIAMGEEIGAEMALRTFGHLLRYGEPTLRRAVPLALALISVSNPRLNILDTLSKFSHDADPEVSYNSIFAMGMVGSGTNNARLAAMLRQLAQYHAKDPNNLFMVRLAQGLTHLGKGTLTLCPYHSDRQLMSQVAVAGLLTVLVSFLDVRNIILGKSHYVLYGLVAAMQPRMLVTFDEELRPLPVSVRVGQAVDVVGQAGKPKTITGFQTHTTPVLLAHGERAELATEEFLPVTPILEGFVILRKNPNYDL
Chain of Rpt1 (ATPase subunit of the human 26S proteasome) (P35998 whole entry): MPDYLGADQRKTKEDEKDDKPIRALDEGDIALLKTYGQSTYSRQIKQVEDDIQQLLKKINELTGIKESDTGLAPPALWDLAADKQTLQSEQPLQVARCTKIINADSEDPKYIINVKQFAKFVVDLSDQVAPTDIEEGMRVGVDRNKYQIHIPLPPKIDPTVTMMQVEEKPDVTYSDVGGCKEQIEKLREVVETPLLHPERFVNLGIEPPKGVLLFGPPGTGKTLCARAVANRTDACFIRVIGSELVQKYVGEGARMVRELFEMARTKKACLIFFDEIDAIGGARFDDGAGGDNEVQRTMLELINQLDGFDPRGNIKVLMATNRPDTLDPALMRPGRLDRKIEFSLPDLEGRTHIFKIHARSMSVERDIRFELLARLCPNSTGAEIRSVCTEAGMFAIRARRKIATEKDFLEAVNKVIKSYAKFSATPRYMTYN
Chain of Rpt5 (ATPase subunit of the human 26S proteasome) (P17980 whole entry): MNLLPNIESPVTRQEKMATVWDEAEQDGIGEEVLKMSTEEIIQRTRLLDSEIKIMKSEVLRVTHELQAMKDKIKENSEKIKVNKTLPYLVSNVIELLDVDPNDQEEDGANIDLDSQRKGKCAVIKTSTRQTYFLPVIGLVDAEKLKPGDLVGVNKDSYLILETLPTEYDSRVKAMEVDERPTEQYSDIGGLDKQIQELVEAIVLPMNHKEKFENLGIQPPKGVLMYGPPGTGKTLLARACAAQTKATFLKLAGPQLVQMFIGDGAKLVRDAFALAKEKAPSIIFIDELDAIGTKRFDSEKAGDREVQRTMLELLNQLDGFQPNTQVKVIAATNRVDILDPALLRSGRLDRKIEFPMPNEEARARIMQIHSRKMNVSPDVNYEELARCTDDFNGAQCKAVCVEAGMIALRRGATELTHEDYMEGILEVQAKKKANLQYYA

B1: ZFAND5 (recombinant mouse ZFAND5, wild type) (natural protein, UniProt O88878 1-213, looked up)
chain: MAQETNQTPGPMLCSTGCGFYGNPRTNGMCSVCYKEHLQRQQNSGRMSPMGTASGSNSPTSDSASVQRADAGLNNCEGAAGSTSEKSRNVPVAALPVTQQMTEMSISREDKITTPKTEVSEPVVTQPSPSVSQPSSSQSEEKAPELPKPKKNRCFMCRKKVGLTGFDCRCGNLFCGLHRYSDKHNCPYDYKAEAAAKIRKENPVVVAEKIQRI
binds: all assays above
